Consider 3 molecules from publication PMC2821902 (Biochemistry, 2009).

Substitutions are numbered along the chain they refer to. Where two headings read alike, the source gives them in different places. Bounds are passed on as bounds.

Data set [1] deals with Dynein light chain LC8 (wild type) (UniProt Q24117). Put plainly: NMR. The settings on record: cited from earlier work.
Data set [2] deals with the molecule itself. The experiment in a line: NMR NZ-exchange spectroscopy.
Data set [3] concerns the molecule itself.
Data set [4] deals with the molecule itself. The experiment in a line: NMR HSQC peak intensities of monomer and dimer signals in slow exchange.
Data set [5] deals with the molecule itself. The experiment in a line: NMR NZ-exchange spectroscopy. This is another data set of the same source.
Data set [6] concerns the molecule itself. The source holds these as a separate data set.

A word on the KD: it is a measure of binding affinity in units of concentration. Regarding Dynein light chain LC8 (wild type), the KD in data set [1] (pH high pH (limit (so in the source))) was less than 1 µM. Further, in data set [1] (pH), the pKa, His55 of LC8 (dimer) was less than 4.5 pH units and the pKa, His55 of LC8 (monomer) is 6.5 pH units.

B1: LC8 Ser88Glu mutant (phosphomimetic) (natural protein)
chain: MSDRKAVIKNADMSEEMQQDAVDCATQALEKYNIEKDIAAYIKKEFDKKYNPTWHCIVGRNFGSYVTHETRHFIYFYLGQVAILLFKEG
What is called koff is a measure of how fast the partners let go of each other. The term kon denotes a measure of how fast the partners come together. What is called Kd is the constant that tells how readily two partners part at equilibrium. High values mean lower affinity, low ones higher affinity. Turning to B1, in data set [2], the koff lay in the range of 1.9 to 5.7 s⁻¹ and the kon lay in the range of 1200 to 3000 M⁻¹ s⁻¹. Further, in data set [3], the “KD of the protonation state His55+/His55+, Glu88/Glu88 (from the model)” value worked out at 25000 µM; the “KD of the protonation state His55+/His55+, Glu88/Glu88− (from the model)” value amounted to 110000 µM; the “KD of the protonation state His55+/His55+, Glu88−/Glu88− (from the model)” value amounted to 1.8e+07 mM; the “KD of the protonation state His55/His55+, Glu88/Glu88 (from the model)” value worked out at 17 µM. Further, in data set [3], the “KD of the protonation state His55/His55+, Glu88/Glu88− (from the model)” value turned out to be 6800 µM; the “KD of the protonation state His55/His55+, Glu88−/Glu88− (from the model)” value was found to be 12000 mM; the “KD of the protonation state His55/His55, Glu88/Glu88 (from the model)” value came to 0.071 µM; the “KD of the protonation state His55/His55, Glu88/Glu88− (from the model)” value amounted to 28 µM. In addition, in data set [4], binding was put at a Kd of 930 µM.

B2: wild-type dynein light chain LC8 (natural protein)
chain: B1 chain with E88S
In data set [5], B2 showed a koff of 0.05 to 0.24 s⁻¹ and a kon of 1000 to 3000 M⁻¹ s⁻¹. For the same molecule, the “KD at neutral pH” value in data set [6] was less than 0.1 µM. For the same molecule, in data set [3], the “KD of the protonation state His55+/His55+ (from the model)” value is 21000 µM, the “KD of the protonation state His55/His55 (from the model)” value is 0.06 µM and the “KD of the protonation state His55/His55+ (from the model)” value turned out to be 14 µM.
